# Source: PMC2212017
# T1: TRPV2 (transient receptor potential vanilloid 2), endogenous in RBL2H3 mast cells (rat (endogenous in RBL2H3)), Q9WUD2
# T1 chain: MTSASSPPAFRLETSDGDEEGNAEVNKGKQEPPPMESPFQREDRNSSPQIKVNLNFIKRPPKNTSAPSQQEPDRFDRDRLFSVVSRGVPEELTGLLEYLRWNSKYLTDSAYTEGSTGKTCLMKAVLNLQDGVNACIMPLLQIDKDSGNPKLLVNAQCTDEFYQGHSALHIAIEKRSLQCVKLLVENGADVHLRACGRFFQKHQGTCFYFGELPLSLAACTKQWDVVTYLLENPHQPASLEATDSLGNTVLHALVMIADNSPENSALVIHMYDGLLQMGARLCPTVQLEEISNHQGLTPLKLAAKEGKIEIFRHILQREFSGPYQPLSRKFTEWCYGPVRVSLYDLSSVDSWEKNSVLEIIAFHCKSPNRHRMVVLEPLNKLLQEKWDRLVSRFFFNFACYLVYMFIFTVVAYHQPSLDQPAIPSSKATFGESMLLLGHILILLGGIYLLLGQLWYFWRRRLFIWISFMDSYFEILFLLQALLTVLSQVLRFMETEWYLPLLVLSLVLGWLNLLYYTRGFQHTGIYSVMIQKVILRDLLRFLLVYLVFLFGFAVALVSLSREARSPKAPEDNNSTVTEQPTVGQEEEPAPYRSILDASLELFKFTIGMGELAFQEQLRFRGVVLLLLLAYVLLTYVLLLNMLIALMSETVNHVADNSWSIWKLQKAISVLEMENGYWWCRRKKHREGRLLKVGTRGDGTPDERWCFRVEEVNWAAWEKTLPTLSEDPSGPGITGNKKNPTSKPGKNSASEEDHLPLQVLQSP
# B1: TRPV2 (transient receptor potential vanilloid 2), endogenous in RBL2H3 mast cells, Q9WUD2 1-761 (natural protein)
# chain: T1 chain
# Target: T1, TRPV2 (transient receptor potential …)
# Experiment: native gel or EMSA
# Conditions: remark: other sources report otherwise
binder,measurement,value
B1,stoichiometry N,4
